# Source: article PMC12042621 (Structure (London, England : 1993), 2025)
# Molecular target: SARS-CoV-2 spike S1 (SARS-CoV-2, wild type (Wuhan-Hu-1), UniProt P0DTC2)
# Experiment: SPR
row,Binder,Kd [pM]
1,S1–8 (VHH) VHH: QVQLVESGGGLVQAGGSLRLSCAASGRVLSSYVMGWFRQAPGKEREFVAAIRWNGGSTFYADSVKGRLTISRDNAKNTVYLQMNSLKPEDTAAYYCAASPRTMYDATYYYSRTSYDYWGQGTQVTVS,3800

# Molecular target: Green Fluorescent Protein (Aequorea victoria, laboratory variant …)
# Experiment: SPR
Binder,Kd [pM],fold increase in affinity over wildtype LaG24 [fold]
LaG41 (VHH) VHH: DVQLVESGGGLVQAGGSLRLSCAASGPTGAMAWFRQAPGKEREFVGGISGSETDTYYVDSVKGRFTVDRDNVKNTVYLQMNSLKPEDTAVYYCAARRRITLFTSRTDYDFWGRGTQVTVGL,900,
LaG19_(S102R) (VHH) VHH: QVQLVESGGGLVQAGGSLRLSCAASGPTGAMAWFRQAPGKEREFVGGISRSGTDTYYVDSVKGRFTIDRDNAKNTVYLQMNSLKPEDTAVYYCAARRRQILFTSRTDYEFWGQGTQVTVSG,600,
LaG21_(L69F) (VHH) VHH: QVQLVESGGGLVQAGGSLRLSCAASGPTGAMAWFRQAPGMEREFVGGISGSETDTYYADFVKGRFTVDRDNVKNTVDLQMNSLKPEDTAVYYCAARRRVTLFTSRADYDFWGQGTQVTVSG,700,
LaG21 (VHH) VHH: QVQLVESGGGLVQAGGSLRLSCAASGPTGAMAWFRQAPGMEREFVGGISGSETDTYYADFVKGRLTVDRDNVKNTVDLQMNSLKPEDTAVYYCAARRRVTLFTSRADYDFWGQGTQVTVSG,7000,
LaG24_(Q68K) (VHH) VHH: DVQLVESGGGLVQPGGSLRLSCAASGEIASIIAIGWYRQAPGKQRESVALITRSGMITYGDSAKGRFTISRDDAKNTVYLHMDDLVPEDTAVYYCNAKKVSFGDYWGQGTQVTVSG,,~10
LaG24_(H85Q) (VHH) VHH: DVQLVESGGGLVQPGGSLRLSCAASGEIASIIAIGWYRQAPGKQRESVALITRSGMITYGDSAQGRFTISRDDAKNTVYLQMDDLVPEDTAVYYCNAKKVSFGDYWGQGTQVTVSG,,> 10
LaG43 (VHH) VHH: DVQLVESGGGLVQPGGSLRLSCEASGGAFSTVAMGWFRQAPGKEREFVGAITWTAGSTYYADSAKGRFTISRDNAKNTVHLQMNSLKPEDTAVYYCAQRVRGFFGPLRTTPSWYEYWGQGTQVTVSG,11000,
LaG16 (VHH) VHH: QVQLVESGGRLVQAGDSLRLSCAASGRTFSTSAMAWFRQAPGREREFVAAITWTVGNTILGDSVKGRFTISRDRAKNTVDLQMDNLEPEDTAVYYCSARSRGYVLSVLRSVDSYDYWGQGTQVTVSG,700,
